Data set [1] has as its target T1, Tachykinin NK2 HUMAN receptor (Homo sapiens, UniProt P21452).
T1 construct: host or cells: CHO
T1 sequence (P21452 1-398): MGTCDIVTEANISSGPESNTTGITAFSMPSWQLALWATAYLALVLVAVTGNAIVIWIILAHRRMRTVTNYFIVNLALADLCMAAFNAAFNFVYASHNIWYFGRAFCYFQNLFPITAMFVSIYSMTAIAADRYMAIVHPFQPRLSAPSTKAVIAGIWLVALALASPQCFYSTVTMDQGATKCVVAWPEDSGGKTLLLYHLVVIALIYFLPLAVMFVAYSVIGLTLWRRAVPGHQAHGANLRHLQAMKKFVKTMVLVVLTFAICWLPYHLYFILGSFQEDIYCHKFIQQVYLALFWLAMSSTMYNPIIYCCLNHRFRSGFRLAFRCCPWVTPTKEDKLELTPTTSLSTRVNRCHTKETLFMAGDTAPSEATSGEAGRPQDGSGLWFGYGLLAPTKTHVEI
To be noted: radioligand; Human recombinant (CHO cells); cited from earlier work.

Data set [2] has as its target T2, DPP-4 peptidase (Homo sapiens, UniProt P27487).
T2 construct: purchased Sigma-Aldrich
Put plainly: DPP4 enzyme stability assay. The format is in vitro ADME. The settings on record: 1 mU DPP-4, tris buffer pH 7.5, 37° C, up to 8 hours incubation.

Data set [3] deals with human GnRH recombinant receptor (AequoScreen cell line, FAST-0160A) (human) (UniProt P30968). Nature of the data set: cell-based or functional assay.
The target in data set [4] is T3, Tachykinin NK3 human receptor (human recombinant, CHO cells) (human, UniProt P29371 1-465).
T3 construct: whole, on cells
T3 sequence (looked up): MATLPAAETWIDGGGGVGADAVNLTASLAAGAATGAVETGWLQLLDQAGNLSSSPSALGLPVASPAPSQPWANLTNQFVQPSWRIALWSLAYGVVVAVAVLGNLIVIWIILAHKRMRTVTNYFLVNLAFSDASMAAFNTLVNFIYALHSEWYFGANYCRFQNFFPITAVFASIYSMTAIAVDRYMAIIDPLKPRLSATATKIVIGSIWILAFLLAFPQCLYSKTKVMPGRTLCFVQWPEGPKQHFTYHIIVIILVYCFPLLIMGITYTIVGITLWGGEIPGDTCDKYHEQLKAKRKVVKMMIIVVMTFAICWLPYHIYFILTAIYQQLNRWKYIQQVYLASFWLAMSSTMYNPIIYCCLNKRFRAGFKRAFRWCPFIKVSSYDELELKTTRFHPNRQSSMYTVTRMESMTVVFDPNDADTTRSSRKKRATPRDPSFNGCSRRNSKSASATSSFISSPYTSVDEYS
Put plainly: radioligand binding, human recombinant NK3 in CHO cells (MDS Pharma assay #255710; printed as assay parameter).

Where a SMILES comes first, the peptide text is derived from it. Where no end group is shown, it is not given here. [ ]: non-standard residue; d: D form. NMeF = CN[C@@H](Cc1ccccc1)C(=O)O; Nle = CCCC[C@H](N)C(=O)O

Chain of human GnRH recombinant receptor (AequoScreen cell line, FAST-0160A) (human) (P30968 whole entry): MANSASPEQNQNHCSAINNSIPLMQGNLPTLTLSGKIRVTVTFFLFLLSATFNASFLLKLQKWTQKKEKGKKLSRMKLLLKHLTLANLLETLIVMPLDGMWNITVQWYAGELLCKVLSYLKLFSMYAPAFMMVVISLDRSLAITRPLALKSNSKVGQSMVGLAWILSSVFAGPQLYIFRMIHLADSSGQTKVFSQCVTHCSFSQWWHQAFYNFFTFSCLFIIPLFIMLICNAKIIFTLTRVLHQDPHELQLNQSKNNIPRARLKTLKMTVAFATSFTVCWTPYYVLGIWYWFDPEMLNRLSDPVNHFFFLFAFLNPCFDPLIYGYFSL
T2 sequence (P27487 whole entry): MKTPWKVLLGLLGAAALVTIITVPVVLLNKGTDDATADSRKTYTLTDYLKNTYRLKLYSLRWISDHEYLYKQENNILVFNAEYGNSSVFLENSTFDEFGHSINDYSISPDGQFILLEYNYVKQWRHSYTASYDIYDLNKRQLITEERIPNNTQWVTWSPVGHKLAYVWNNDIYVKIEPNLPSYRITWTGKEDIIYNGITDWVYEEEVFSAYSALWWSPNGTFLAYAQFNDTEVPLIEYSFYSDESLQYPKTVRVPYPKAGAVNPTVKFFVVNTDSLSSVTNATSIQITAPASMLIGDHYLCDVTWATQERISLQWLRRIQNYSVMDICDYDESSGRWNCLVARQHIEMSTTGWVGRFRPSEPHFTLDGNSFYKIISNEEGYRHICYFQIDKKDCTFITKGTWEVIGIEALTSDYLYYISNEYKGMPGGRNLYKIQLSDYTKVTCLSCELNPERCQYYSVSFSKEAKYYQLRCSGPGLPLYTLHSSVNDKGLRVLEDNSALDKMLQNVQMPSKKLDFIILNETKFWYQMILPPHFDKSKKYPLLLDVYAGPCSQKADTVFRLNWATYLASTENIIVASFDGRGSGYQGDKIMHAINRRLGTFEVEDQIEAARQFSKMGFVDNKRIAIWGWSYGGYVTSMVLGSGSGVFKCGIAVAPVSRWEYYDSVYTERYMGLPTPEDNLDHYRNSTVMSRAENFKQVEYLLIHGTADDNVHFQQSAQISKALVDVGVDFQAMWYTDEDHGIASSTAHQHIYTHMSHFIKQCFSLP

What is called Kd is the equilibrium constant for the complex coming apart. Take `CC(=O)NC1(c2ccccc2)CCN(CC[C@H](CN(C)C(=O)c2ccccc2)c2ccc(Cl)c(Cl)c2)CC1` [[3H] SR-48968]: the Kd in data set [1] was 0.25 nM.

As to `CCCC[C@H](NC(=O)[C@@H](NC(=O)[C@H](CC(=O)O)NC(=O)[C@H](CCC(N)=O)NC(=O)[C@H](CC(C)C)NC(=O)[C@H](CC(C)C)NC(=O)[C@H](CCCCN)NC(=O)[C@H](CCCNC(=N)N)NC(=O)[C@H](C)NC(=O)[C@H](CO)NC(=O)[C@H](CC(C)C)NC(=O)[C@H](CCC(N)=O)NC(=O)CNC(=O)[C@H](CC(C)C)NC(=O)[C@@H](NC(=O)[C@H](CCCCN)NC(=O)[C@H](CCCNC(=N)N)NC(=O)[C@H](Cc1ccc(O)cc1)NC(=O)[C@H](C)NC(=O)[C@H](C)NC(=O)[C@@H](NC(=O)[C@H](Cc1ccccc1)NC(=O)[C@@H](NC(=O)[C@H](C)NC(=O)[C@H](CC(=O)O)NC(=O)[C@H](C)NC(=O)[C@@H](N)Cc1ccc(O)cc1)[C@@H](C)CC)[C@@H](C)O)C(C)C)[C@@H](C)CC)C(=O)N[C@@H](CO)C(=O)N[C@@H](CCCNC(=N)N)C(N)=O` [peptide control] (H-YADAIFTAAYRKVLGQLSARKLLQDI[Nle]SR-NH2), in data set [2], the “DPP-4 peptidase resistance (degradation by HPLC-MS)” value is “substantially cleaved”.

For the molecule [D-Trp6] LHRH (Bachem, H4075) (peptide), in data set [3], the EC50, aequorin luminescence agonist assay (AequoScreen cells) came to 0.14 nM and the EC50, historical value of the same assay stood at 0.38 nM.

B1: [125I] MePhe7-Neurokinin B (peptide)
peptide: DMHDFF[NMeF]GLM-NH2
modifications: ends and bridges not checked; also: 125I label, position not given here
B1: in data set [4], the Kd is 0.28 nM.

The values above are taken from patent US20100168443A1, “Ethoid-Containing Compounds, Methods for Preparing Ethoid-Containing Compounds, and Methods of Use” (UNIVERSITY OF VIRGINIA PATENT FOUNDATION, priority 2006, published 2010).
